{"source": "the supplement of paper PMC9170038", "system": "MS2 coat protein", "assay": "apparent KD of MS2 coat protein; designed switch direction (-1 OFF switch, 1 ON switch): -1; higher = weaker reporter binding", "method_in_brief": "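Each step of the titration lasted 0.8–1.5 h at the lowest concentration and 10–20 min at the highest. The protein, SNAP-549-labelled MS2 coat protein, went from 0.7 or 1.5 nM doubling to 3 µM over RNA switches transcribed on Illumina chips by stalled E. coli RNA polymerase. Normalised cluster fluorescence was curve-fitted, and the per-design median over clusters is given as apparent KD.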", "key": {"[1]": {"details": "input ligand: microRNA oligo, concentration not stated"}}}
{"sequence": "AGCAAGUUAGGAUAUCUUAAAGUUAGGUGAUGUCCUGUUUGAGAGAAGGAACAUGAGGAUCACCCAUGUGGUCA [Eternabot (L2) Solution 56] (Eterna round: R97, puzzle: Exclusion 4)", "values": [{"measurement": "apparent KD of MS2 coat protein", "setting": "input ligand: FMN 200 uM", "value": 58.3, "unit": "nM"}, {"measurement": "apparent KD of MS2 coat protein", "setting": "input ligand: none", "value": 62.6, "unit": "nM"}]}
{"sequence": "AGCCACAGAGGAUAUACAUACAUCCAGUAGUAGAGUCUACUACAUGAGGAUCACCCAUGUAGAAGGCUGUGGCA [Omei Ex2 BD B16] (Eterna round: R97, puzzle: Exclusion 2)", "values": [{"measurement": "apparent KD of MS2 coat protein", "setting": "input ligand: FMN 200 uM", "value": 419, "unit": "nM"}, {"measurement": "apparent KD of MS2 coat protein", "setting": "input ligand: none", "value": 37.1, "unit": "nM"}]}
{"sequence": "AGCCCUGCAGGAUAUGCCCGGGAUAACAUGAGGAUCACCCAUGUGACCGAUUGUUAAUCUGCAGAAGGGCAUGGGA [JL-EX5-4.18 ViennaUCT mod] (Eterna round: R97, puzzle: Exclusion 5)", "values": [{"measurement": "apparent KD of MS2 coat protein", "setting": "input ligand: FMN 200 uM", "value": 313, "unit": "nM"}, {"measurement": "apparent KD of MS2 coat protein", "setting": "input ligand: none", "value": 563, "unit": "nM"}]}
{"sequence": "AGCCGUCUAGGAUAUACAUAAGAUCGGCAGUCUCCGUCGAGACAUGAGGAUCACCCAUGUAGAAGGAGGCGGGA [EX2 A.22] (Eterna round: R97, puzzle: Exclusion 2)", "values": [{"measurement": "apparent KD of MS2 coat protein", "setting": "input ligand: FMN 200 uM", "value": 208, "unit": "nM"}, {"measurement": "apparent KD of MS2 coat protein", "setting": "input ligand: none", "value": 47.2, "unit": "nM"}]}
{"sequence": "AGCCUAGCAGGAUAUGCCCGGGAUAACAUGAGGAUCACCCAUGUGACCGAUUGAUGUCCUGCAGAAGGGCUAGGGA [JL-EX5-4.00 ViennaUCT mod] (Eterna round: R97, puzzle: Exclusion 5)", "values": [{"measurement": "apparent KD of MS2 coat protein", "setting": "input ligand: FMN 200 uM", "value": 20.9, "unit": "nM"}, {"measurement": "apparent KD of MS2 coat protein", "setting": "input ligand: none", "value": 18.5, "unit": "nM"}]}
{"sequence": "AGCCUAGCAGGAUAUGCCCGGGAUAACAUGAGGAUCACCCAUGUGACUGAUUGAUAUCUUGCAGAAGGGCUAGGGA [JL-EX5-4.06 ViennaUCT mod] (Eterna round: R97, puzzle: Exclusion 5)", "values": [{"measurement": "apparent KD of MS2 coat protein", "setting": "input ligand: FMN 200 uM", "value": 187, "unit": "nM"}, {"measurement": "apparent KD of MS2 coat protein", "setting": "input ligand: none", "value": 25.5, "unit": "nM"}]}
{"sequence": "AGCGAAUAAGCAGGAUAUGAGAAUAGAUAGAGCUCAGAAGGGCUACAUGAGGAUCACCCAUGUAAAGUCUUGAGGCUGCGUGGU [Prohibition 13 - Jieux - Exclusion NG 1] (Eterna round: R96, puzzle: Exclusion NG 1)", "values": [{"measurement": "apparent KD of MS2 coat protein", "setting": "input ligand: FMN 200 uM", "value": 22.5, "unit": "nM"}, {"measurement": "apparent KD of MS2 coat protein", "setting": "[1]", "value": 14.4, "unit": "nM"}, {"measurement": "apparent KD of MS2 coat protein", "setting": "input ligand: none", "value": 18.4, "unit": "nM"}]}
{"sequence": "AGCGAGGCAGGAUAUACAUGAGGAUCACCCAUGUACUUGUAUGGCGUGGAACAUCGUGGUAGAAGGGCCGUGCU [EX3 #81] (Eterna round: R97, puzzle: Exclusion 3)", "values": [{"measurement": "apparent KD of MS2 coat protein", "setting": "input ligand: FMN 200 uM", "value": 101, "unit": "nM"}, {"measurement": "apparent KD of MS2 coat protein", "setting": "input ligand: none", "value": 355, "unit": "nM"}]}
{"sequence": "AGCGCCAUCGUGAGAUGGCGUAUUACAUGAGGAUCACCCAUGUAGGAUAUCGAUUGCUUUGCAGUCGAGAAGGGCAUGUACCAG [JL ENG3 3.80 Mod K] (Eterna round: R96, puzzle: Exclusion NG 3)", "values": [{"measurement": "apparent KD of MS2 coat protein", "setting": "input ligand: FMN 200 uM", "value": 54.7, "unit": "nM"}, {"measurement": "apparent KD of MS2 coat protein", "setting": "[1]", "value": 32.8, "unit": "nM"}, {"measurement": "apparent KD of MS2 coat protein", "setting": "input ligand: none", "value": 46, "unit": "nM"}]}
{"sequence": "AGCUAAAUAGGAUAUGCCCGGGAUAACAUGAGGAUCACCCAUGUGACCGAUUCAUGUCCUGCAGAAGGGUUUGGGA [Mod of ViennaUCT 6 - Jieux - Exclusion 5] (Eterna round: R97, puzzle: Exclusion 5)", "values": [{"measurement": "apparent KD of MS2 coat protein", "setting": "input ligand: FMN 200 uM", "value": 14.3, "unit": "nM"}, {"measurement": "apparent KD of MS2 coat protein", "setting": "input ligand: none", "value": 13.5, "unit": "nM"}]}
{"sequence": "AGCUAGAUAGGAUAUGCCCGAGAUAACAUGAGGAUCACCCAUGUGACCGAAUCUAAUCUAGCAGAAGGGUUUAGGA [Mod of ViennaUCT 16 - Jieux - Exclusion 5] (Eterna round: R97, puzzle: Exclusion 5)", "values": [{"measurement": "apparent KD of MS2 coat protein", "setting": "input ligand: FMN 200 uM", "value": 15.4, "unit": "nM"}, {"measurement": "apparent KD of MS2 coat protein", "setting": "input ligand: none", "value": 15.1, "unit": "nM"}]}
{"sequence": "AGCUAGUCAGGAUAUUCUAUUAAUUACAUGAGGAUCACCCAUGUGAAUGGGCAAGGGUGUGAAGAAGGGACUAGCG [Omei Ex5 A16] (Eterna round: R97, puzzle: Exclusion 5)", "values": [{"measurement": "apparent KD of MS2 coat protein", "setting": "input ligand: FMN 200 uM", "value": 305, "unit": "nM"}, {"measurement": "apparent KD of MS2 coat protein", "setting": "input ligand: none", "value": 1030, "unit": "nM"}]}
{"sequence": "AGCUAGUCAGGAUAUUCUGUUAAUUACAUGAGGAUCACCCAUGUGAAUGGACAAGGGUGUGAAGAAGGGACUAGCG [Omei Ex5 A15] (Eterna round: R97, puzzle: Exclusion 5)", "values": [{"measurement": "apparent KD of MS2 coat protein", "setting": "input ligand: FMN 200 uM", "value": 124, "unit": "nM"}, {"measurement": "apparent KD of MS2 coat protein", "setting": "input ligand: none", "value": 248, "unit": "nM"}]}
{"sequence": "AGCUAGUGCCGAGGAUAUACAUGAGGAUCACCCAUGUAGCCGUGAGGCUUUGUCUCACGGGAUAUGUAGAAGGCGGCGUUGGCA [JL ENG2 1.53] (Eterna round: R96, puzzle: Exclusion NG 2)", "values": [{"measurement": "apparent KD of MS2 coat protein", "setting": "input ligand: FMN 200 uM", "value": 34.1, "unit": "nM"}, {"measurement": "apparent KD of MS2 coat protein", "setting": "[1]", "value": 11.8, "unit": "nM"}, {"measurement": "apparent KD of MS2 coat protein", "setting": "input ligand: none", "value": 18.3, "unit": "nM"}]}
{"sequence": "AGCUGUGGCCGAGGAUAUCACAUGAGGAUCACCCAUGUAUAUGAUUAGGCCUGGUAACAGGCUCGUGAGAAGGCGGUCUCAGCA [Eli eng2 - 012] (Eterna round: R96, puzzle: Exclusion NG 2)", "values": [{"measurement": "apparent KD of MS2 coat protein", "setting": "input ligand: FMN 200 uM", "value": 28.4, "unit": "nM"}, {"measurement": "apparent KD of MS2 coat protein", "setting": "[1]", "value": 19.5, "unit": "nM"}, {"measurement": "apparent KD of MS2 coat protein", "setting": "input ligand: none", "value": 31.3, "unit": "nM"}]}
{"sequence": "AGCUGUGGCCGAGGAUAUCACGAACCAUGGAAAACCAUGGAACUCAAACAUGAGGAUCACCCAUGUGAGAAGGCGGUCUCAGCA [Eli eng2 - 018] (Eterna round: R96, puzzle: Exclusion NG 2)", "values": [{"measurement": "apparent KD of MS2 coat protein", "setting": "[1]", "value": 15.2, "unit": "nM"}]}
